Here are results for 1 molecule from paper PMC6602975.

For the experiment, the target named is H4K16ac nucleosome. In words: EMSA. The conditions noted are these: chain shown with the change.

B1: Sir3 BAH domain (construct 1–214), P06701 D205N (protein)
chain: MAKTLKDLDGWQVIITDDQGRVIDDNNRRRSRKRGGENVFLKRISDGLSFGKGESVIFNDNVTETYSVYLIHEIRLNTLNNVVEIWVFSYLRWFELKPKLYYEQFRPDLIKEDHPLEFYKDKFFNEVNKSELYLTAELSEIWLKDFIAVGQILPESQWNDSSIDKIEDRDFLVRYACEPTAEKFVPIDIFQIIRRVKEMEPKQSNEYLKRVSVP
Usually Kd stands for a measure of binding affinity in units of concentration. As for B1, the Kd was 0.81 µM.
